Source: patent US20130230868A1 (SIEMENS HEALTHCARE DIAGNOSTICS, published 2013)

Experiments:
[1] = molecular target: recombinant gain-of-function GPIbα protein fragment (amino acids 1-285 with amino acid substitutions G233V and M239V) (human) (UniProt P07359); experiment: latex particle agglutination (turbidimetry, 570 nm); inhibition of VWF-GPIbα complex formation by 10 µg/ml AK2 in normal plasma pool
[2] = molecular target: recombinant gain-of-function GPIbα protein fragment (amino acids 1-285 with amino acid substitutions G233V and M239V) (human) (UniProt P07359); experiment: latex particle agglutination (turbidimetry, 570 nm); inhibition of VWF-GPIbα complex formation by 20 µg/ml AK2 in normal plasma pool
[3] = molecular target: T1, von Willebrand factor (VWF) in plasma (human, UniProt P04275 764-2813); experiment: latex particle agglutination, turbidimetry at 570 nm
T1 construct: mature; Native multimeric VWF present in plasma, not purified; The number of monomers per multimer varies; also called VWF protein
Procedure: The sample used was human citrated plasma from six different donors. 60 μl of sample were mixed with 20 μl of plasma containing VWF (91% of norm VWF, control plasma N, Siemens Healthcare Diagnostics Products GmbH, Marburg, Germany), 13 μl of a solution containing a recombinant gain-of-function GPIbα protein fragment (amino acids 1-285 with amino acid substitutions G233V and M239V; 8.4 μg/ml) and 70 μl of an NaCl buffer and incubated for two minutes. Subsequently, 40 μl of a latex particle reagent containing latex particles coated with anti-GPIbα antibodies were added to the assay mix.
Absorbance at 570 nm of the reaction mixture was measured turbidimetrically. Binding of VWF to GPIbα and binding of the GPIbα protein to the latex particles result in particle agglutination. This agglutination leads to an increase in absorbance, the maximum rate of which is determined (mU/min).

| Rate of agglutination [1] [mU/min] | Rate of agglutination [2] [mU/min] | binding result [3] | Molecule |
| --- | --- | --- | --- |
| 266 | 133 | – | anti-GPIb antibody AK2 |
| – | – | binds | recombinant gain-of-function GPIbα protein fragment (amino acids 1-285 with amino acid substitutions G233V and M239V) (receptor) HPICEVSKVASHLEVNCDKRNLTALPPDLPKDTTILHLSENLLYTFSLATLMPYTRLTQLNLDRCELTKLQVDGTLPVLGTLDLSHNQLQSLPLLGQTLPALTVLDVSFNRLTSLPLGALRGLGELQELYLKGNELKTLPPGLLTPTPKLEKLSLANNNLTELPAGLLNGLENLDTLLLQENSLYTIPKGFFGSHLLPFAFLHGNPWLCNCEILYFRRWLQDNAENVYVWKQVVDVKAVTSNVASVQCDNSDKFPVYKYPGKGCPTLGDEGDTDLYDYYPEEDTE |
